Blank lines part the entries; values can stand above or below the molecule they belong to.
Experiments:
[1] = molecular target: T1, androgen receptor N-terminus (AR18-500) (Rattus norvegicus, UniProt P15207); assay: Modified yeast two-hybrid, quantitative liquid beta-galactosidase assay; type: binding; conditions: LexA-ART fusions vs AR18-500; twelve hour incubation in galactose-containing media
T1 construct: receptor residues 18 through 500 (using the rat androgen receptor number scheme); expressed in transfected cells; host or cells: Saccharomyces cerevisiae EGY188
T1 sequence (P15207 18-500): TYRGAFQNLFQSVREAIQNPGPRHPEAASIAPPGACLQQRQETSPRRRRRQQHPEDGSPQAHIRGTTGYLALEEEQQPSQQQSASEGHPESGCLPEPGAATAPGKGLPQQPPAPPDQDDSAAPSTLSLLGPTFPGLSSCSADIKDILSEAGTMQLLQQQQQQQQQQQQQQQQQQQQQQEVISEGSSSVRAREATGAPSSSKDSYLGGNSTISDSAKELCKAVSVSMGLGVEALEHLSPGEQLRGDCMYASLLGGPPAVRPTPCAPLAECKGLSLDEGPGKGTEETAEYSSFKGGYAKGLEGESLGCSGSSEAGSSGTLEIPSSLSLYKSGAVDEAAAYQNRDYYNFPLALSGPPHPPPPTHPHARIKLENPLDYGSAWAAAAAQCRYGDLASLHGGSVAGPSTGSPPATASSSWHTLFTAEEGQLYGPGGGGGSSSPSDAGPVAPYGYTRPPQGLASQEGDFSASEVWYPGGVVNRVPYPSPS
Procedure: (§1) The modified yeast two hybrid assay is described in Hittelman et al., 1999. EGY188 was transformed by the lithium acetate method with (i) pJG4-5:AR18-500, (ii) pEG202:LNCaP cell cDNA library and (iii) pJK103, a β-galactosidase reporter gene with a single LexA operator. Potential interacting proteins were selected by plating the cDNA library expressing transformants onto galactose plates lacking leucine and containing X-gal.
Yeast were grown in selective liquid media containing 2% glucose for approximately 12 hours, pelleted, washed once with sterile H2O, normalized according to cell number and resuspended to an optical density (OD600) of 0.15 in 2% galactose/1% raffinose. β-galactosidase assays were performed 12 hours later as described previously (Garabedian et al., 1992).
Out of approximately one million library transformants, eight clones were isolated that interact with the androgen receptor N-terminus. There protein factors were termed ARTs, for Androgen Receptor Trapped, by the present inventors. The eight ART clones were sequenced and were subjected to a database search using the BLAST program. A quantitative liquid beta-galactosidase assay was used to measure the relative strength of interaction between the androgen receptor N-terminus and the ARTs using the yeast two-hybrid system. The levels of expression of the ARTs in yeast were similar, as determined by immunoblotting using an antibody to the LexA DNA-binding domain that is common to all of the ARTs.
ARTs expressed as fusion proteins with the LexA DNA binding domain were analyzed for their ability to interact with AR18-500. The relative strength of interaction was determined by a quantitative liquid beta-galactosidase assay after a twelve hour incubation in galactose-containing media at 30EC. The LexA vector alone gives 1 unit of activity.

[2] = molecular target: T2, androgen receptor (AR) N-terminus (18-500) (Rattus norvegicus, UniProt P15207); assay: Modified yeast two-hybrid, qualitative plate beta-galactosidase assay; type: binding; conditions: AR N-terminus, AR LBD, Sp1A, Sp1B, CREB, TAFII130, GR AF1, SRC-1
T2 construct: receptor residues 18 through 500 (using the rat androgen receptor number scheme); expressed in transfected cells; host or cells: Saccharomyces cerevisiae EGY188
T2 sequence (P15207 18-500): T1 sequence (P15207 18-500)
From the text: as §1
To analyze the specificity of ART interaction, the capacity of the strongest androgen receptor N-terminus-interacting factors to associate with a panel of transcriptional regulatory proteins in the modified yeast two-hybrid assay was examined. ART-5, ART-27, and ART-37 were tested for interaction with Sp1A (Sp183-262), Sp1B (Sp1263-524) the cyclic AMP response element binding protein (CREB3-296), TBP-associated factor 130 (TAFII130270-700), the glucocorticoid receptor AF1 (GR107-237), and the steroid receptor coactivator-1 (SRC-1374-800).
The strength of interaction was determined by a qualitative plate beta-galactosidase assay after a 24 hour incubation on galactose X-gal plates at 301 C.
ART-27 derivatives containing amino acids 1-45, 1-67, 1-127, 46-157, 68-157, 127-157, 1-157, and 1-45/127-157 were expressed as fusion proteins with LexA. These derivatives were tested for their ability to interact with the androgen receptor N-terminus (AR18-500). The strength of interaction was determined by a qualitative plate beta-galactosidase assay after a 24 hour incubation on galactose X-gal plates at 301 C.

[3] = molecular target: T3, androgen receptor ligand-binding domain (579-901) (Rattus norvegicus, UniProt P15207); assay: Modified yeast two-hybrid specificity panel; conditions: absence or presence of hormone
T3 construct: expressed in transfected cells; host or cells: yeast (modified two-hybrid assay)
T3 sequence (P15207 579-901): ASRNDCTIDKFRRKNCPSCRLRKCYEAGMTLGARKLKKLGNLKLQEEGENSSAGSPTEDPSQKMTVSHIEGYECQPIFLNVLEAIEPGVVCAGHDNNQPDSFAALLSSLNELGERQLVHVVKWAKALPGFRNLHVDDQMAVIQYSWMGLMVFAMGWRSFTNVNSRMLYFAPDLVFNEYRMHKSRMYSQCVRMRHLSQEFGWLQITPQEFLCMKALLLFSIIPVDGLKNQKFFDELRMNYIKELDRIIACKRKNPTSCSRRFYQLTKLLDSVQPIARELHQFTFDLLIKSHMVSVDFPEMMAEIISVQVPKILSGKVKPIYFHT

Molecule: ART-9: corresponds to ZNF160, a zinc finger containing protein of unknown function
relative strength of interaction with androgen receptor N-terminus [1]: Weak

Molecule: ART-6: Androgen Receptor Trapped protein, SEQ ID NO:8, an EST (EFGTRLKPYVSYLAPESEETPLTAAQLFSKPLAPCHRKGLQG; Human)
relative strength of interaction with androgen receptor N-terminus [1]: Intermediate strength

Further lines, results first:

relative strength of interaction with androgen receptor N-terminus [1]: Weak
Molecule: ART-2: Androgen Receptor Trapped protein, SEQ ID NO:10, present in the EST database (EFGTRIHCPHNPRPTRRSTDHSISPSIDPHLQISHQQPTNHHPTMTNQTNLKTNDNHTQH; Human)

relative strength of interaction with androgen receptor N-terminus [1]: strongest
specificity of interaction among panel of transcriptional regulatory factors [2]: relatively promiscuous
interaction with androgen receptor ligand binding domain [3]: No interaction
B1: ART-37: Androgen Receptor Trapped protein, SEQ ID NO:6, unknown function, represented in EST database (protein)
chain: EFGTRARFTRGKSALLERALARPRTEVSLSAFALLSPSWYSTARAVFSVAELQSRLAALGRQVGARVLDALVAREKGARRETKVLGALLFVKGAVWKALFGKEADKLEQANDDARTFYIIEREPLINTYISVPKENSTLNCASFTAGIVEAVLTHSGFPAKVTAHWHKGTTLMIKFEEAVIARDRLEGR
modifications: Human

Reference: patent US20080081903A1, “METHOD FOR SCREENING TRANSCRIPTIONAL COREGULATORY PROTEINS OF TRANSCRIPTION FACTORS, AND ANDROGEN RECEPTOR TRANSCRIPTIONAL COREGULATORY PROTEINS AS TARGETS FOR ANDROGEN RECEPTOR-DEPENDENT DISEASES” (NEW YORK UNIVERSITY, priority 2001, published 2008)
